Measured values from publication PMC8668096, “Investigating the role of the carbon storage regulator A (CsrA) in Leptospira spp”.

T1: rCsrA L. biflexa (Leptospira biflexa serovar Patoc, UniProt B0SQM8 1-79)
T1 sequence: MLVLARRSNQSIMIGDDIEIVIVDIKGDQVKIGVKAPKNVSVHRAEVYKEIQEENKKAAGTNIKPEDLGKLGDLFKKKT


Columns and labels:
rCsrA L. biflexa [1] = target: T1, rCsrA L. biflexa; assay: EMSA; dose-dependent, 100-800 nM rCsrA, 1 nM RNA; 10 mM HEPES pH 7.3, 20 mM KCl, 1 mM MgCl2, 1 mM DTT (plus 10 mM DTT), 7.5% glycerol, 0.2 ug/uL yeast tRNA, 37 C 30 min; 10% native PAGE; details: protein: recombinant; tags: N-terminal 6xHis (pRSET-C); chain copies: 2; label: 5' biotin; hairpin (predicted, GGA-containing hexaloop)
rCsrA L. biflexa [2] = target: T1, rCsrA L. biflexa; assay: EMSA; no interaction, 100-800 nM rCsrA, 1 nM RNA; 10 mM HEPES pH 7.3, 20 mM KCl, 1 mM MgCl2, 1 mM DTT (plus 10 mM DTT), 7.5% glycerol, 0.2 ug/uL yeast tRNA, 37 C 30 min; 10% native PAGE; details: protein: recombinant; tags: N-terminal 6xHis (pRSET-C); chain copies: 2; label: 5' biotin

Binder	binding result (rCsrA L. biflexa [1])	binding result (rCsrA L. biflexa [2])
UGGACACACAGGAGGGUGUGAC (structured_RNA) [LEPBIa_1872 WT (flaB3 upstream)]	binds	–
UGGACACACAAAAGGGUGUGAC (structured_RNA) [LEPBIa_1872 Mut (GGA to AAA)]	–	no binding
